{"source": "patent US20260201038A1", "about": "(CELLABMED, published 2026)", "key": {"B7-H4": {"target": "T1, B7-H4 (UniProt Q7Z7D3 25-258, limits assumed)", "T1 sequence (looked up)": "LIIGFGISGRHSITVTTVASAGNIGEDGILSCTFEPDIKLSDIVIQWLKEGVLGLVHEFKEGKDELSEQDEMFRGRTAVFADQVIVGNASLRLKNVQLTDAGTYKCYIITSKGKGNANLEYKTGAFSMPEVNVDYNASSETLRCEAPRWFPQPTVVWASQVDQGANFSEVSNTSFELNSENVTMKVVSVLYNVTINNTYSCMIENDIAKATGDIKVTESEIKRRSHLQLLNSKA", "assay": "indirect ELISA, B7-H4 coated at 1 ug/mL, absorbance at 450 nm", "protocol": "[The procedure below names another target; the source lists this target under the same test.] The binding ability of 2D IgG prepared in Example 2 for recombinant B7-H3 protein was investigated by indirect ELISA. For indirect ELISA, recombinant human 4lg B7-H3, recombinant human 2lg B7-H3 and recombinant mouse B7-H3 were diluted respectively to 1 μg/mL in 50 μL of PBS and adsorbed overnight onto a 96-well immunoplate (Corning, USA) by storing at 4° C. After reaction with a buffer solution containing 3% bovine serum albumin at room temperature for 1 hour, followed by washing 3 times with a buffer solution containing 0.5% Tween 20, each well was treated with 50 μL of the antibodies diluted serially (0.0001, 0.0003, 0.001, 0.003, 0.01, 0.03, 0.1, 0.3, 1, 3 and 10 nM). For antigen-antibody binding, the mixture was reacted at room temperature for 2 hours, and then washed 3 times with a buffer solution containing 0.5% Tween 20. After treating each well with 50 μL of anti-human immunoglobulin Fc-HRP antibodies (Jackson Immunoresearch, USA) diluted to 1:3,000, reaction was conducted at room temperature for 1 hour. […] As a result of measuring absorbance at 450 nm using a spectrophotometer (Biotek, USA), it was confirmed that 2D IgG binds to B7-H3, and the binding ability was in the order of 4lg B7-H3, 2lg B7-H3 and mouse B7-H3 (FIG. 2a). […]"}, "[1]": {"target": "B7-H3 on human cancer cells (human) (UniProt Q5ZPR3)", "assay": "flow cytometry on U87 brain tumor cells; control (secondary antibody only) < 10%"}, "[2]": {"target": "B7-H3 on human cancer cells (human) (UniProt Q5ZPR3)", "assay": "flow cytometry on A549 lung cancer cells; control (secondary antibody only) < 5%"}, "[3]": {"target": "B7-H3 on human cancer cells (human) (UniProt Q5ZPR3)", "assay": "flow cytometry on A172 brain tumor cells; control (secondary antibody only) < 25%"}, "[4]": {"target": "B7-H3 on human cancer cells (human) (UniProt Q5ZPR3)", "assay": "flow cytometry on HepG2 liver cancer cells; control (secondary antibody only) < 10%"}, "TPQRSPTGAVEVQVP": {"target": "T2, TPQRSPTGAVEVQVP", "T2 construct": "15-mer of human 4Ig B7-H3 on the peptide microarray, panel Ig-like-V type 2", "T2 peptide": "TPQRSPTGAVEVQVP", "assay": "peptide microarray, 15-mers of human 4Ig B7-H3; panel Ig-like-V type 2", "protocol": "(§1) It was confirmed that G2D IgG has linear epitopes since G2D was verified to recognize 4lg B7-H3 through western blot (FIG. 10a). Therefore, linear epitope mapping was conducted by Pepperprint GmbH (Germany). After preparing a peptide microarray from the 15 4lg B7-H3 amino acids with 14-amino acid overlaps, the antibodies binding to peptides were identified using secondary antibodies (FIG. 10b). As a result, it was confirmed that G2D IgG binds to a peptide having a sequence of EVQVP (FIG. 10c). EVQVP is located in the Ig-like V-type1 and Ig-like V-type2 domains of 4lg B7-H3 (FIGS. 10d and 10e). When the epitopes of the control antibody enoblituzumab were identified by the same method, it was confirmed that the epitopes include the sequence of GYPEAE (FIG. 10b), and GYPEAE is located in the Ig-like C2-type1 and Ig-like C2-type2 domains of 4lg B7-H3 (FIGS. 10d and 10e). As a result, it was confirmed that G2D IgG and the control antibody enoblituzumab have different epitopes."}, "PQRSPTGAVEVQVPE": {"target": "T3, PQRSPTGAVEVQVPE", "T3 construct": "15-mer of human 4Ig B7-H3 on the peptide microarray, panel Ig-like-V type 2", "T3 peptide": "PQRSPTGAVEVQVPE", "assay": "peptide microarray, 15-mers of human 4Ig B7-H3; panel Ig-like-V type 2", "protocol": "as §1"}, "QRSPTGAVEVQVPED": {"target": "T4, QRSPTGAVEVQVPED", "T4 construct": "15-mer of human 4Ig B7-H3 on the peptide microarray, panel Ig-like-V type 2", "T4 peptide": "QRSPTGAVEVQVPED", "assay": "peptide microarray, 15-mers of human 4Ig B7-H3; panel Ig-like-V type 2", "protocol": "as §1"}, "RSPTGAVEVQVPEDP": {"target": "T5, RSPTGAVEVQVPEDP", "T5 construct": "15-mer of human 4Ig B7-H3 on the peptide microarray, panel Ig-like-V type 2", "T5 peptide": "RSPTGAVEVQVPEDP", "assay": "peptide microarray, 15-mers of human 4Ig B7-H3; panel Ig-like-V type 2", "protocol": "as §1"}, "SPTGAVEVQVPEDPV": {"target": "T6, SPTGAVEVQVPEDPV", "T6 construct": "15-mer of human 4Ig B7-H3 on the peptide microarray, panel Ig-like-V type 2", "T6 peptide": "SPTGAVEVQVPEDPV", "assay": "peptide microarray, 15-mers of human 4Ig B7-H3; panel Ig-like-V type 2", "protocol": "as §1"}, "PTGAVEVQVPEDPVV": {"target": "T7, PTGAVEVQVPEDPVV", "T7 construct": "15-mer of human 4Ig B7-H3 on the peptide microarray, panel Ig-like-V type 2", "T7 peptide": "PTGAVEVQVPEDPVV", "assay": "peptide microarray, 15-mers of human 4Ig B7-H3; panel Ig-like-V type 2", "protocol": "as §1"}, "TGAVEVQVPEDPVVA": {"target": "T8, TGAVEVQVPEDPVVA", "T8 construct": "15-mer of human 4Ig B7-H3 on the peptide microarray, panel Ig-like-V type 2", "T8 peptide": "TGAVEVQVPEDPVVA", "assay": "peptide microarray, 15-mers of human 4Ig B7-H3; panel Ig-like-V type 2", "protocol": "as §1"}, "GAVEVQVPEDPVVAL": {"target": "T9, GAVEVQVPEDPVVAL", "T9 construct": "15-mer of human 4Ig B7-H3 on the peptide microarray, panel Ig-like-V type 2", "T9 peptide": "GAVEVQVPEDPVVAL", "assay": "peptide microarray, 15-mers of human 4Ig B7-H3; panel Ig-like-V type 2", "protocol": "as §1"}, "VEVQVPEDPVVALVG": {"target": "T10, VEVQVPEDPVVALVG", "T10 construct": "15-mer of human 4Ig B7-H3 on the peptide microarray, panel Ig-like-V type 2", "T10 peptide": "VEVQVPEDPVVALVG", "assay": "peptide microarray, 15-mers of human 4Ig B7-H3; panel Ig-like-V type 2", "protocol": "as §1"}, "[5]": {"target": "B7-H3 on human cancer cells (human) (UniProt Q5ZPR3)", "assay": "flow cytometry on Panc-1 pancreatic cancer cells; control (secondary antibody only) < 15%"}, "[6]": {"target": "mouse B7-H3 expressed on Raji cells (mouse) (UniProt Q8VE98)", "sequence (Q8VE98 other isoform, or with tags, fused parts or gaps, form in doubt)": "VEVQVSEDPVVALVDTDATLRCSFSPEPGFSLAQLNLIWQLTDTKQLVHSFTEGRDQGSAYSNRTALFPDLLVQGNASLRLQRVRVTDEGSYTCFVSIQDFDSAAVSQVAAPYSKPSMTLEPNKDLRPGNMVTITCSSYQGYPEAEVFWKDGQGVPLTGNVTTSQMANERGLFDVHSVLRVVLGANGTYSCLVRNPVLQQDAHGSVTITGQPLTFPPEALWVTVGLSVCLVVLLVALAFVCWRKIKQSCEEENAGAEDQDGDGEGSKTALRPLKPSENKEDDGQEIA", "assay": "flow cytometry on Raji cells expressing mouse B7-H3; the vector control Raji cells show < 10%"}}, "data": [{"binder": "G2D IgG (antibody, V domains shown, The back-substitutions (L46T, S66K, V71N in VL); also called humanized 2D; G2D antibody) VH: QVQLVESGGGLVQPGGSLRLSCSASGFDFSSYPMVWVRQAPGKGLEYVSSINSGGSWTGYGAAVKGRATISRDNSKNTLYLQMNSLRAEDTATYYCARAYGAATIDAWGQGTTVTVSS VL: SYELTQPPSVSVSPGQTARITCSGGSIGYGWYQQKAPGQAPVTVIYYNDRRPSGIPERFSGSKSGTTNTLTISGVQAEDEADYYCGSADSSSTYTGIFGGGTKLTVL", "values": [{"measurement": "binding result", "setting": "B7-H4", "value": "no binding (tested: 10 nM)"}, {"measurement": "% of cells in the positive gate", "setting": "[1]", "value": "> 95", "unit": "%"}, {"measurement": "% of cells in the positive gate", "setting": "[2]", "value": "> 95", "unit": "%"}, {"measurement": "% of cells in the positive gate", "setting": "[3]", "value": "> 95", "unit": "%"}, {"measurement": "% of cells in the positive gate", "setting": "[4]", "value": "> 95", "unit": "%"}, {"measurement": "fluorescence intensity of the peptide spot", "setting": "TPQRSPTGAVEVQVP", "value": 89.3}, {"measurement": "fluorescence intensity of the peptide spot", "setting": "PQRSPTGAVEVQVPE", "value": 92.3}, {"measurement": "fluorescence intensity of the peptide spot", "setting": "QRSPTGAVEVQVPED", "value": 80}, {"measurement": "fluorescence intensity of the peptide spot", "setting": "RSPTGAVEVQVPEDP", "value": 120}, {"measurement": "fluorescence intensity of the peptide spot", "setting": "SPTGAVEVQVPEDPV", "value": 94.8}, {"measurement": "fluorescence intensity of the peptide spot", "setting": "PTGAVEVQVPEDPVV", "value": 142}, {"measurement": "fluorescence intensity of the peptide spot", "setting": "TGAVEVQVPEDPVVA", "value": 84.5}, {"measurement": "fluorescence intensity of the peptide spot", "setting": "GAVEVQVPEDPVVAL", "value": 95}, {"measurement": "fluorescence intensity of the peptide spot", "setting": "VEVQVPEDPVVALVG", "value": 92.5}, {"measurement": "% of cells in the positive gate", "setting": "[5]", "value": "> 95", "unit": "%"}, {"measurement": "% of cells in the positive gate (P5)", "setting": "[6]", "value": "> 95", "unit": "%"}]}]}
